One assay has as its target linear di-ubiquitin (UniProt P0CG48 1-76; P0CG48 1-76). The experiment in a line: ITC. (In ITC the heat of successive injections is recorded.)
Assay [1] addresses mono-ubiquitin (untagged, native N- and C-termini) (UniProt P0CG48 1-76). Kind of assay: crystal structure.

B1: HOIP-RBR (residues 696–1072) (domain or fragment, human, UniProt Q96EP0 696-1072, looked up)
chain: AQECAVCGWALPHNRMQALTSCECTICPDCFRQHFTIALKEKHITDMVCPACGRPDLTDDTQLLSYFSTLDIQLRESLEPDAYALFHKKLTEGVLMRDPKFLWCAQCSFGFIYEREQLEATCPQCHQTFCVRCKRQWEEQHRGRSCEDFQNWKRMNDPEYQAQGLAMYLQENGIDCPKCKFSYALARGGCMHFHCTQCRHQFCSGCYNAFYAKNKCPEPNCRVKKSLHGHHPRDCLFYLRDWTALRLQKLLQDNNVMFNTEPPAGARAVPGGGCRVIEQKEVPNGLRDEACGKETPAGYAGLCQAHYKEYLVSLINAHSLDPATLYEVEELETATERYLHVRPQPLAGEDPPAYQARLLQKLTEEVPLGQSIPRRRK
Regarding B1, the binding result (with linear di-ubiquitin; in assay [1]) was “binds” throughout.

For the origin of these results see paper PMC4856479 (Nature, 2016).
